Data taken from patent US9012606B2, “In vivo half life increased fusion protein or peptide maintained by sustained in vivo release, and method for increasng in vivo half-life using same” (Alteogen, Inc., priority 2009, dated 2015).
Residue numbers refer to the chain shown, from its start. Names may count otherwise.

Key:
[1] = Pharmacokinetics of IFN-α and IFN-α/alpha-1 antitrypsin monovariant fusion (serum ELISA); format: in vivo; settings: Sprague-Dawley rats, subcutaneous, 60 μg/kg (Intermax alpha control)
Description: The enzyme immunoassay of human interferon alpha (IFN-α) and human interferon alpha/alpha-1 antitrypsin monovariant fusion was conducted with Human IFN-α Matched Antibody Pairs for ELISA (bender Medsystems, Austria). The IFN-α antibody (10 μg/ml) was allowed to adhere to 96-well plates and blocked as described in Test Example 1-1. A dilution of the sample was reacted with the antibody at room temperature for 2 hrs with shaking. An anti-IFN-α-HRP conjugate was plated in an amount of 50 μL/well and reacted with the antibody at room temperature for 2 hrs with shaking. Subsequent processes were conducted in the same manner as in Test Example 1-1.
Sprague-Dawley rats were used as experimental animals and five rats were assigned to each test group. The human interferon alpha/alpha-1 antitrypsin monovariant fusion [T502: α1AT(P357N)/IFN-α] prepared in Example 4 was subcutaneously injected at a dose of 200 μg/kg into Sprague-Dawley rats of one test group, 0, 0.33, 1, 2, 5, 8, 12, 18, 24, 30, 48, 72 and 96 hrs after which blood samples were taken, and centrifuged to obtain sera. […] Each sample was analyzed in the same manner as the enzyme immunoassay of Test Example 1.

[2] = Pharmacokinetics of hGH and hGH/alpha-1 antitrypsin fusions (serum ELISA); format: in vivo; settings: Sprague-Dawley rats, subcutaneous, 200 μg/kg (Scitropin control)
Description: An anti-human growth hormone monoclonal antibody (Medix Biochemica, Finland) was diluted to a concentration of 1-5 μg/mL in phosphate buffered saline (PBS) and the dilution was aliquoted in an amount of 100 μL/well onto a 96-well plate (Nunc, Denmark) and incubated at room temperature for 15-18 hrs. After the antibody remaining suspended was removed, PBS containing 1% bovine serum albumin was plated in an amount of 250 μL/well and incubated at room temperature for 2 hours. The plates were washed three times with wash buffer (0.05% Tween 20, PBS) and the solution was aspirated. Samples were diluted in PBS containing 1% bovine serum albumin and added to the 96-well plates before incubation at room temperature for 2 hrs. The 96-well plates were washed five times with wash buffer and 100 μL of the human growth hormone monoclonal antibody-biotin conjugate prepared using sulfo-NHS-biotin (Pierce biotechnology, U.S.A.) was added to each well of the 96-well plates and then incubated at room temperature for 2 hrs. The plates were washed five times with wash buffer and incubated with streptabidin-HRP at room temperature for 30 min. Again, the plates were washed five times with wash buffer and reacted with 100 μL of a mixture of TMB (3,3′,5,5′-tetramethylbenzidine) and hydrogen peroxide per well for 30 min in a dark place. To each well was added 100 μL of 1 M sulfuric acid to terminate the reaction, followed by measuring absorbance at 450 nm on a VersaMax microplate reader (Molecular Device, U.S.A.). Values for each sample were calculated by regression analysis after a standard curve was plotted for a reference material.
Sprague-Dawley rats were used as experimental animals and three of them were administered with human growth hormone while five rats were assigned to each of the fusion-administered groups. The human growth hormone/alpha-1 antitrypsin fusion [T109wt: α1AT/hGH], the human growth hormone/alpha-1 antitrypsin monovariant fusion [T109: α1AT(P357N)/hGH], and the human growth hormone/alpha-1 antitrypsin divariant fusion [T109T: α1AT(P357N, S359T)/hGH], all prepared in Examples 1-3, were subcutaneously injected at a dose of 720 μg/kg into respective groups of Sprague-Dawley rats. The samples were diluted in PBS before injection. Blood samples were taken at 0, 1, 2, 4, 8, 12, 16, 24, 30 and 48 hrs after the injection, and centrifuged to obtain sera. For a control, Scitropin (SciGen, Singapore), a kind of human growth hormone, was subcutaneously injected at a dose of 200 μg/kg. PBS was used as a diluent. Blood samples were taken at 0, 0.33, 1, 2, 5, 8, 12, 18, 24, 30 and 48 hrs after the injection, and centrifuged to obtain sera. Each sample was analyzed in the same manner as the enzyme immunoassay of Test Example 1.

[3] = In vivo activity: body weight change in pituitary gland-removed rats; parameters: species or system Sprague-Dawley rats; settings: subcutaneous 5 μg per rat every day (Eutropin), day 7
Description: Pituitary gland-removed Sprague-Dawley rats were used as experimental animals and divided into three groups of seven. To the hypophysectomyzed Sprague-Dawley rats, the human growth hormone/alpha-1 antitrypsin monovariant fusion [T109: α1AT(P357N)/hGH] prepared in Example 2 and human growth hormone (Eutropin, LG Life Sciences Ltd, Korea) were subcutaneously injected at doses of 18 μg and 5 μg per rat, respectively, every day. For a control, PBS was used. The rats were weighed every day after being injected.

[4] = Weweres et al. 1987; cited from earlier work
[5] = Pharmacokinetics of G-CSF and G-CSF/alpha-1 antitrypsin variant fusions (serum ELISA); format: in vivo; settings: Sprague-Dawley rats, subcutaneous
Description: The same procedure as in Test Example 1 was repeated with the exception that an anti-granulocyte colony-stimulating factor (G-CSF) monoclonal antibody (RND systems, U.S.A.), instead of the anti-human growth hormone antibody, was diluted to a concentration of 1-5 μg/mL and granulocyte colony-stimulating factor polyclonal antibodies-biotin conjugate (RND systems, U.S.A.), instead of the human growth hormone monoclonal antibody-biotin conjugate, was used.
Sprague-Dawley rats were used as experimental animals and three of them were administered with granulocyte colony-stimulating factor while five rats were assigned to each of the fusion-administered groups. The granulocyte colony-stimulating factor/alpha-1 antitrypsin divariant fusion [T602S: α1AT(P357N, C232S)/G-CSF], and granulocyte colony-stimulating factor/alpha-1 antitrypsin trivariant fusion [T602ST: α1AT(P357N, C232S, S359T)/G-CSF], all prepared in Examples 5-6, were subcutaneously injected at a dose of 340 μg/kg into respective groups of Sprague-Dawley rats. Blood samples were taken at 0, 1, 2, 4, 8, 12, 16, 24, 30, and 48 hrs after the injection, and centrifuged to obtain sera. For a control, Filgrastim (Gracin, Jeil Pharmaceutical Co. Ltd. Korea), a commercially available granulocyte colony-stimulating factor, was subcutaneously injected at a dose of 100 μg/kg. Blood samples were taken at 0, 1, 2, 4, 8, 12, 18, 24, 30 and 48 hrs after the injection, and centrifuged to obtain sera. Each sample was analyzed in the same manner as the enzyme immunoassay of Test Example 1.

[6] = system: leucocytes; assay: In vivo activity: changes in leucocyte level; settings: Sprague-Dawley rats
Description: Sprague-Dawley rats were used as experimental animals and divided into five groups of five each. To the Sprague-Dawley rats, the granulocyte colony-stimulating factor/alpha-1 antitrypsin divariant fusion [T602S: α1AT(P357N, C232S)/G-CSF] prepared in Example 5 was subcutaneously injected at doses of 340 μg/kg and 1,700 μg/kg. To another groups of rats, the granulocyte colony-stimulating factor/alpha-1 antitrypsin trivariant fusion [T602ST: α1AT(P357N, C232S, S359T)/G-CSF] prepared in Example 6 and the granulocyte colony-stimulating factor Filgrastim (Gracin, Jell Pharmaceutical Co. Ltd. Korea) were subcutaneously injected at doses of 1,700 μg/kg and 100 μg/kg, respectively. Blood samples were taken from the tail on 3 days before experiment and on 1, 2, 3, 4 and 5 days after the injection and leucocytes were counted using Hematology Analyzer (Pentra 120).

[7] = system: Murine myeloblastic NFS-60 cells; assay: In vitro activity in NFS-60 cells (MTS method); format: cell-based
Description: The rat lymphoma cell line (NB2 cell) was maintained in RPMI1640 supplemented with 10% HS (Horse serum), 10% FBS, 2-mercaptoethanol and antibiotics at 37° C. under a 5% CO2 condition. For 24 hrs before experiment, NB2 cells were incubated in RPMI 1640 supplemented with 10% HS. Thereafter, the NB2 cells were washed once with 1×DPBS (Dulbecco's Phosphate Buffered Saline), and plated at a density of 2×10^4 cells/100 μL/well in 5% HS-supplemented RPMI 1640 in 96-well plates (Corning, U.S.A.) with final volume of 100 μL. A series of concentrations of the samples were added in an amount of 20 μL to each well of the 96-well plates, followed by incubation at 37° C. for 48 hrs under a 5% CO2 condition. Subsequently, 20 μL of an MTS solution (Promega, U.S.A.) was added to each well of the 96-well plates and allowed to react at 37° C. for 3 hrs under a 5% CO2 condition. The reaction was terminated by adding 20 μL of 10% SDS (sodium dodecyl sulfate) to each well. Absorbance was measured at 490 nm using a VersaMax microplate reader (Molecular Device, U.S.A.).
Murine myeloblastic NFS-60 cells were incubated in RPMI 1640 supplemented with 10% FBS, mouse IL-3 and antibiotics at 37° C. under a 5% CO2 condition. The absorbance of the cells was measured at 490 nm in the same manner as in Test Example 4-1.

Question: For “human interferon alpha [reference compound]”, which Tmax [1] is on record?
Answer: 1.4 h

Question: What about the “serum half-life (t1/2)” value [1] of the same molecule?
Answer: 3.4 h

Question: For “human growth hormone [reference compound]”, which Tmax [2] is on record?
Answer: 1 h

Question: And the “serum half-life (t1/2)” value [2]?
Answer: 0.8 h

Question: And the weight gain [3]?
Answer: about 10.2%

Question: For alpha-1 antitrypsin, which in vivo half-life [4] is on record?
Answer: 120 to 140 h

B1: Filgrastim (protein, chains of the INN, looked up)
chain: MTPLGPASSLPQSFLLKCLEQVRKIQGDGAALQEKLCATYKLCHPEELVLLGHSLGIPWAPLSSCPSQALQLAGCLSQLHSGLFLYQGLLQALEGISPELGPTLDTLQLDVADFATTIWQQMEELGMAPALQPTQGAMPAFASAFQRRAGGVLVASHLQSFLEVSYRVLRHLAQP
notes: Filgrastim (Gracin, Jeil Pharmaceutical), a commercially available granulocyte colony-stimulating factor
Question: Which results are given for B1?
Answer: Tmax ([5]; 100 μg/kg (Filgrastim control)): 1.8 h; serum half-life (t1/2) ([5]; 100 μg/kg (Filgrastim control)): 1.8 h; leucocyte count time course ([6]; subcutaneous, 100 μg/kg): peak level at Day 1 and then decrease to the base line from Day 2

B2: granulocyte colony-stimulating factor/alpha-1 antitrypsin divariant fusion (protein)
chain: EDPQGDAAQKTDTSHHDQDHPTFNKITPNLAEFAFSLYRQLAHQSNSTNIFFSPVSIATAFAMLSLGTKADTHDEILEGLNFNLTEIPEAQIHEGFQELLRTLNQPDSQLQLTTGNGLFLSEGLKLVDKFLEDVKKLYHSEAFTVNFGDTEEAKKQINDYVEKGTQGKIVDLVKELDRDTVFALVNYIFFKGKWERPFEVKDTEEEDFHVDQVTTVKVPMMKRLGMFNIQHSKKLSSWVLLMKYLGNATAIFFLPDEGKLQHLENELTHDIITKFLENEDRRSASLHLPKLSITGTYDLKSVLGQLGITKVFSNGADLSGVTEEAPLKLSKAVHKAVLTIDEKGTEAAGAMFLEAINMSIPPEVKFNKPFVFLMIDQNTKSPLFMGKVVNPTQKGGGGSTPLGPASSLPQSFLLKCLEQVRKIQGDGAALQEKLCATYKLCHPEELVLLGHSLGIPWAPLSSCPSQALQLAGCLSQLHSGLFLYQGLLQALEGISPELGPTLDTLQLDVADFATTIWQQMEELGMAPALQPTQGAMPAFASAFQRRAGGVLVASHLQSFLEVSYRVLRHLAQP
modifications: T602S [alpha-1AT(P357N, C232S)/G-CSF]
notes: G-CSF fused to C-terminus of alpha-1 antitrypsin divariant 2 P357N, C232S
Question: Which EC50 [7] does the source give for B2 here?
Answer: 78.1 pM

Question: And the Tmax ([5]; 340 μg/kg)?
Answer: 13.6 h

Question: And the “serum half-life (t1/2)” value ([5]; 340 μg/kg)?
Answer: 5.1 h

Question: What about the “leucocyte count time course” value ([6]; subcutaneous, 340 μg/kg) of the same molecule?
Answer: peak level on Day 2 and then decrease from Day 3

Question: And the “leucocyte count time course” value ([6]; subcutaneous, 1,700 μg/kg)?
Answer: remained high until Day 3 and started to decrease on Day 4

B3: granulocyte colony-stimulating factor/alpha-1 antitrypsin trivariant fusion (protein)
chain: B2 chain with S359T
modifications: T602ST [alpha-1AT(P357N, C232S, S359T)/G-CSF]
notes: G-CSF fused to C-terminus of alpha-1 antitrypsin trivariant P357N, C232S, S359T
Question: What does the source list for B3?
Answer: EC50 [7]: 97.6 pM; Tmax ([5]; 340 μg/kg): 16 h; serum half-life (t1/2) ([5]; 340 μg/kg): 4.5 h; leucocyte count time course ([6]; subcutaneous, 1,700 μg/kg): remained high until Day 3 and started to decrease on Day 4
